According to publication doi:10.1101/633420:

Target: PRR (UniProt P10636)
Assay: fluorescence correlation spectroscopy

Chain of UniProt P10636 (P10636 466-561): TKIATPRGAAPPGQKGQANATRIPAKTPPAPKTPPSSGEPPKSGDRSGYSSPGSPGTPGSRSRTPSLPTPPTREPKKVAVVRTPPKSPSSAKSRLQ
Chain of tubulin (Q6B856 whole entry, looked up): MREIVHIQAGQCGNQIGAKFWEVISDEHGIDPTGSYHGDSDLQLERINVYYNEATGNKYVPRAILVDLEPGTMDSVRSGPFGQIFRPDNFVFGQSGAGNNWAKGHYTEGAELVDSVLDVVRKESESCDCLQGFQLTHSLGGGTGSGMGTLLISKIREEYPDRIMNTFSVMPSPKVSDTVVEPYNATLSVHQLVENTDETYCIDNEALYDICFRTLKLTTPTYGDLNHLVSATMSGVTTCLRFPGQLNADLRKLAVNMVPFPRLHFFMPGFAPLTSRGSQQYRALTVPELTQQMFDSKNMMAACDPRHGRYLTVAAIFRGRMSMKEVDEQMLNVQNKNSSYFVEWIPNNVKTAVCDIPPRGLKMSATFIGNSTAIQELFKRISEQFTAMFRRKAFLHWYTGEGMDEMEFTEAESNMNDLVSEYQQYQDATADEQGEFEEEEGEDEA

Kd: 900 nM | stoichiometry N (tubulin dimers per PRR): 2
Substance: tubulin (from UniProt Q6B856 1-445) (complex)
